We go through 2 molecules from patent publication US20100166764A1 (Eli Lilly, published 2010).

Experiment [1] has as its target T1, mature myostatin (human, murine, rat, chicken, turkey, …, UniProt O08689 268-376 (mouse entry)).
T1 sequence: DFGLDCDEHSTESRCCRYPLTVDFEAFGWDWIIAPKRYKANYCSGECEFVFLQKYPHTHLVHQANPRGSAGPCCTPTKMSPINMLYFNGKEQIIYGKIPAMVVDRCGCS
Put plainly: cell-based or functional assay.

For experiment [2], the target named is T1, mature myostatin. Briefly: ELISA on plate-coated myostatin, periprep Fab in serial dilution, detection with goat anti-human-kappa-AP, O.D. against Fab concentration (ng/ml). On the procedure: ELISA plates are coated with myostatin diluted to 4 ug/ml in carbonate buffer (50 mM NaHCO₃ pH 8.3) and 50 μL added per well. Plates are covered with sealing tape and incubate overnight at 4° C. Thereafter, plates (Greiner U-bottom plates Cat #650061) are washed three times with PBS-T (0.1% Tween-20) using an automatic plate washer. 200 μL of blocking buffer (PBS+1% BSA+0.1% Tween-20) is added to every well and incubated at room temperature for one hour. Plates are washed and 50 μl of sample added per well. Samples are composed of periprep Fabs diluted in PBST/BSA starting at a 1:3 dilution and then serially diluted in half-log steps. Plates are washed and 50 μL of secondary antibody solution (1:2000 goat anti-human-kappa-AP Southern Biotech Cat # 2060-04 in PBST/BSA) is added to every well. Following an additional wash step, 100 μL of AP substrate is added per well and incubates at room temperature for about 10 minutes. The absorbance or OD at 560 nm is read. C12 or 510C2 is included on each ELISA plate as an affinity reference standard. The concentration of Fabs is determined by a quantitative ELISA using an anti-Fd antibody (Sheep anti-Fd Biodesign) to capture protein and goat anti-human-kappa-AP (Southern Biotech) to detect. A purified Fab standard is run on each plate to generate a standard curve for the concentration determinations.
In general terms: In an ELISA, binding on a coated surface is turned into a signal by an enzyme label.

B1: C12-N93H (antibody, human IgG4 S228P, kappa, V domains shown)
VH: QLQLQESGPGLVKPSETLSLTCTVSGFSLRKVGSSVSWIRQPPGKGLEWIGHIYWDDDKRLNPSLRNRVTISVDTSKNQFSLKLSSVTAADTAVYYCARRAITTVIGGGTFDLWGQGTLVTVSS
VL: DIQMTQSPSSLSASVGDRVTITCSASSSISYMHWYQQKPGKAPKLLIYDTSKLARGVPSRFSGSGSGTDFTLTISSLQPEDFATYYCQQWYLHPLTFGGGTKVEIKR
In the case of B1, the “IC50 in the myostatin/SBE reporter assay (luciferase, HEK293 EBNA cells)” value with mature myostatin [1] was about 7.03 nM.

B2: C12 Fab with the Asn residue in CDRL3 replaced with R (Fab, V domains shown)
VH: QLQLQESGPGLVKPSETLSLTCTVSGFSLRKVGSSVSWIRQPPGKGLEWIGHIYWDDDKRLNPSLRNRVTISVDTSKNQFSLKLSSVTAADTAVYYCARRAITTVIGGGTFDLWGQGTLVTVSS
VL: DIQMTQSPSSLSASVGDRVTITCSASSSISYMHWYQQKPGKAPKLLIYDTSKLARGVPSRFSGSGSGTDFTLTISSLQPEDFATYYCQQWYLRPLTFGGGTKVEIKR
notes: Periprep Fab
For B2, the binding result with mature myostatin [2] was “binds”.
